Patent publication US20200353078A1 (AstraZeneca / MedImmune, published 2020)
Substitutions are numbered along the chain they refer to.

T1: Human IL-33 Flag®His (human)
T1 construct: Mature IL-33 with C-terminal FLAG 10xHis tag, from E. coli; biotinylated via free cysteines where used biotinylated; also called Mature Human IL-33_FH; human IL-33 FH
T1 chain: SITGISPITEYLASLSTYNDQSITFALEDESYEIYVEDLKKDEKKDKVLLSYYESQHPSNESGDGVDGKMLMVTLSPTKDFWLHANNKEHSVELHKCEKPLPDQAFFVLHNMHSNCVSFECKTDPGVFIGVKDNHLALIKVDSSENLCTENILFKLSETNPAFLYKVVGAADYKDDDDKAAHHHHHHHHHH

T2: Human IL-33 (Axxora/Adipogen AG-40B-0038) (human, UniProt O95760 112-270, limits assumed)
T2 construct: Bought; also called IL-33 (Adipogen); biotinylated human IL-33
T2 sequence (looked up): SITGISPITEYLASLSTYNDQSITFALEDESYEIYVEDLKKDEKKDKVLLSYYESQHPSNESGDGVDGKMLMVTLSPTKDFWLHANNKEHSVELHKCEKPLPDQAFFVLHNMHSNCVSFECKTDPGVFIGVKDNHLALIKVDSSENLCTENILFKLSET

T3: Endogenous human IL-33 (human, UniProt O95760 1-270, limits assumed)
T3 sequence (looked up): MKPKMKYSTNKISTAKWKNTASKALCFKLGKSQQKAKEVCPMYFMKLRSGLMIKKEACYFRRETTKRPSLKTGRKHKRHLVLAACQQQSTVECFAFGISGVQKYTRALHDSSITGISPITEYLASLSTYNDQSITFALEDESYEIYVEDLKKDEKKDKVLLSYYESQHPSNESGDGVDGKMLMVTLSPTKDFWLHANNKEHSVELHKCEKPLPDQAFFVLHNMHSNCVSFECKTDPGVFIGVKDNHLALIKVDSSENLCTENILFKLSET

T4: His10/Avi Human IL33-01 (human)
T4 construct: Wild type mature IL-33 with N-terminal 10xHis, Avitag and Factor Xa site; biotinylated by BirA on the Avitag where used biotinylated; reduced form unless treated; also called N-terminal His Avi IL-33; His-Avi human IL-33 wild type
T4 chain: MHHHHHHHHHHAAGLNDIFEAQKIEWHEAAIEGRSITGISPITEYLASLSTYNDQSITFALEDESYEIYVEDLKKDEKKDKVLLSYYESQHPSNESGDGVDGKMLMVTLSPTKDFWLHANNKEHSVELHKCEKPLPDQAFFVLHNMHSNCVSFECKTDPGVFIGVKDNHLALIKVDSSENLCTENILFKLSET

T5: Full-length human IL-33 (amino acids 1-270), HEK293-EBNA cell lysate (human, UniProt O95760 1-270)
T5 sequence (looked up): T3 sequence (looked up)

T6: His10/Avi Cyno IL-33 (cynomolgus monkey)
T6 construct: also called Cynomolgus 10His Avitag IL-33; biotinylated His Avi cynomolgus IL-33
T6 chain: T4 chain with E77K, N94S, H118Q, M146R, H147S, S148F, S177Y, C182G, T183S, T193I

B1: IL330125 IgG1 (antibody, V domains shown)
VH: EVQLVQSGAEVKKPGASVTVSCKASGYSFTDYYIHWVRQAPGQGPEWMGWINPNSGVTDFAQKFLGRVTMTRDTSISTAYMELSRLTSDDTALYYCARVAFVYYDSSAFQYWGKGTLVTVSS
VL: LPVLTQPPSVSVSPGQTATITCSADKLGDKYAAWYQQKPGQSPVLVIYQDRKRPSGIPERFSGSNSGNTATLIISGTQAMDEADYYCQAWDSNTGLYVFGTGTKLTVL
notes: Human IgG1, lambda constant
B2: H338L293 (SEQ ID NOs 182 and 187) (antibody, V domains shown)
VH: EVQLLESGGGLVQPGGSLRLSCAASGFTFSSYAMSWVRQAPGKGLEWVSAISPREGWQYYADSVKGRFTISRDNSKNTLYLQMNSLRAEDTAVYYCVRVVAGYFDSWGRGTLVTVSS
VL: SYELMQPPSVSVSPGQTARITCSGDALPKQYAHWYQQKPGQAPVLVIYKDTERPSGIPERFSGSSSGTTVTLTISGVQAEDEADYYCMSSDPSGASRVFGGGTKLTVL
notes: IgG; also called H338L293_fgl; H338L293 IgG
B3: IL330259 IgG1 (antibody, V domains shown)
VH: B2 VH with I51S, S52T, R54W, E55Q, W57S, Q58T
VL: B2 VL with E3V, M5T, V44A, M88Q, S90A, P92S, L105V
notes: IgG1
B4: 33_640050 IgG1 (antibody, V domains shown)
VH: EVQLLESGGGLVQPGGSLRLSCAASGFTFSSYAMSWVRQAPGKGLEWVSAISGSGGSTYYADSVKGRFTISRDNSKNTLYLQMNSLRAEDTAVYYCPRHKFMQLWGGGLRYPFGYWGQGTMVTVSS
VL: SYVLTQPPSVSVSPGQTASITCSGERMGDKYAAWYQQKPGQSPVLVIYQDTKRPSGIPERFSGSNSGNTATLTISGTQAMDEADYYCQVWDSSTGVFGGGTKVTVL
notes: IgG1; also called ZZ1F7Q-D10
B5: Cynomolgus IL-33 Flag®His (ligand)
chain: SITGISPITESLASLSTYNDQSITFALEDESYEIYVEDLKKDKKKDKVLLSYYESQHPSSESGDGVDGKMLMVTLSPTKDFWLQANNKEHSVELHKCEKPLPDQAFFVLHNRSFNCVSFECKTDPGVFIGVKDNHLALIKVDYSENLGSENILFKLSEINPAFLYKVVGAADYKDDDDKAAHHHHHHHHHH
notes: C-terminal FLAG 10xHis tag, E. coli; also called Mature Cynomolugus IL-33; cyno IL-33 FH
B6: IL330126 IgG1 (antibody, V domains shown)
VH: EVQLVQSGAELKKPGASVKVSCKTSGYSFNTYGISWVRQAPGQGLEWMGWVSGDDGNINYAEKFQGRVAMTTDTSTTTAYMELWSLTSDDTAVYYCARVRRGSGWYKNYHYYMDVWGQGTMVTVSS
VL: QSVLTQPPSVSVSPGQTASVTCSGDRLGDKYASWYQQKPGQSPVLVIYQDRKRPSGIPERFSGSNSGNTATLTISGTQAMDEADYYCQAWDGSTALFGGGTKLTVL
notes: Human IgG1, lambda constant

Tests used:
Human IL-33 Flag®His [1] = target: T1, Human IL-33 Flag®His; assay: HTRF competition, IgG titrated against biotinylated human ST2-Fc
Experimental: The ability of anti-IL-33 antibodies to inhibit the binding of FLAG®-His tagged IL-33 to the ST2 receptor was assessed in a biochemical HTRF® (Homogeneous Time-Resolved Fluorescence, Cisbio International) competition assay, the principles of which are described above.
(§1) Activity of purified IgG preparations were determined by competing a dilution series of the purified IgG against biotinylated human or mouse ST2.Fc for binding to FLAG® His-tagged human, cynomolgus or mouse IL-33.
(§2) Purified or unpurified anti-IL-33 antibody samples were tested for inhibition of FLAG®-His tagged IL-33 binding ST2-Fc by adding 10 microlitres of each dilution of antibody test sample to a 384 well low volume assay plate (Costar 3676). Next, a solution containing 4 nM biotinylated human or mouse ST2-Fc and 20 nM streptavidin XL665 detection (Cisbio International, 611SAXLB) was prepared and 5 microlitres of the mix added to the assay plate. This was followed by the addition of 5 microlitres of a solution containing 1.2 nM FLAG®-His tagged human, cynomolgus or mouse IL-33 combined with 1.72 nM anti-FLAG® cryptate detection (Cisbio International, 61FG2KLB). All dilutions were performed in assay buffer comprised of Dulbeccos PBS (Invitrogen, 14190185) containing 0.8 M potassium fluoride (BDH 103444T) and 0.1% BSA (Sigma A9576). Assay plates were incubated for 2 hour at room temperature followed by 16 hour at 4° C. before reading time resolved fluorescence at 620 nm and 665 nm emission wavelengths using an EnVision plate reader (Perkin Elmer).

[2] = target: B5; assay: HTRF competition: purified IgG titrated against biotinylated human ST2-Fc for FLAG-His cynomolgus IL-33
Experimental: as §1, §2

Human IL-33 Flag®His [3] = target: T1, Human IL-33 Flag®His; assay: cell-based or functional assay
Human IL-33 Flag®His [4] = target: T1, Human IL-33 Flag®His; assay: HTRF: IL-33FH binding to biotinylated ST2-Fc, IgG titrated, after 18 h pre-incubation of IgG with IL-33
[5] = target: T2, Human IL-33 (Axxora/Adipogen …); assay: HTRF epitope competition: unlabelled IgG against DyLight labelled IL330101 IgG for biotinylated human IL-33
Endogenous human IL-33 = target: T3, Endogenous human IL-33; assay: cell-based or functional assay
His10/Avi Human IL33-01 [6] = target: T4, His10/Avi Human IL33-01; assay: HTRF epitope competition, IgG titrated; competitor DyLight labelled 33_640117 IgG; overnight
How it was run: (§3)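 HTRF competition in which titrated IgG blocks binding of DyLight-labelled 33_640117 IgG (2.5 nM stock) to biotinylated IL-33 detected with streptavidin cryptate: human IL-33-01 at 0.12 nM with 0.75 nM cryptate, cyno IL-33 at 0.24 nM with 1.5 nM cryptate (solution concentrations). Fluorescence read after 1 h and overnight.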

[7] = target: T5, Full-length human IL-33 (amino acids …); assay: cell-based or functional assay
His10/Avi Human IL33-01 [8] = target: T4, His10/Avi Human IL33-01; assay: HTRF competition: purified IgG against FLAG-His human ST2 for biotinylated IL33-01, overnight incubation
His10/Avi Human IL33-01 [9] = target: T4, His10/Avi Human IL33-01; assay: HTRF epitope competition, IgG titrated; competitor DyLight labelled 33_640117 IgG; 1 hour
How it was run: as §3

His10/Avi Cyno IL-33 = target: T6, His10/Avi Cyno IL-33; assay: as above
How it was run: as §3

33_640087-7B IgG1 = target: T7, 33_640087-7B IgG1; assay: HTRF: unlabelled test protein competes with biotinylated human IL33-01 for DyLight650 labelled 33_640087-7B IgG
T7 construct: IgG1
Experimental: Human, cyno and mouse IL-33 FLAG® His (described in Example 1 and Table 21), Human IL-1 alpha and IL-1 beta (R&D Systems) (Table 21) or rat IL-33 (GenScript) were tested for inhibition of human IL-33 binding to DyLight650 labelled 33_640087-7B or DyLight650 labelled 33_640237-2B by adding 5 microlitres of each dilution of sample to a 384 well low volume assay plate (Costar, 3673). […] This was followed by the addition of 2.5 microlitres of a solution containing 0.12 nM biotinylated human IL-33-01 combined with 0.75 nM streptavidin cryptate detection (Cisbio International, 610SAKLB). All dilutions were performed in assay buffer containing 0.8 M potassium fluoride (VWR, 26820.236) and 0.1% bovine serum albumin (BSA, PAA, K05-013) in Dulbeccos PBS (Invitrogen, 14190185). Assay plates were incubated for 4 hours at room temperature followed by 18 hours at 4 degrees Celsius and time resolved fluorescence was read at 620 nm and 665 nm emission wavelengths using an EnVision plate reader (Perkin Elmer). Data were analysed by calculating the 665/620 nm ratio followed by the % Delta F values for each sample. The 665/620 nm ratio was used to correct for sample interference using Equation 1. The % Delta F for each sample was then calculated using Equation 2. […] IC₅₀ values were determined using GraphPad Prism software by curve fitting using a four-parameter logistic equation (Equation 4).

33_640237-2B IgG1 = target: T8, 33_640237-2B IgG1; assay: HTRF: unlabelled test protein competes with biotinylated human IL33-01 for DyLight650 labelled 33_640237-2B IgG
T8 construct: IgG1
Experimental: Human, cyno and mouse IL-33 FLAG® His (described in Example 1 and Table 21), Human IL-1 alpha and IL-1 beta (R&D Systems) (Table 21) or rat IL-33 (GenScript) were tested for inhibition of human IL-33 binding to DyLight650 labelled 33_640087-7B or DyLight650 labelled 33_640237-2B by adding 5 microlitres of each dilution of sample to a 384 well low volume assay plate (Costar, 3673). […] This was followed by the addition of 2.5 microlitres of a solution containing 0.12 nM biotinylated human IL-33-01 combined with 0.75 nM streptavidin cryptate detection (Cisbio International, 610SAKLB). All dilutions were performed in assay buffer containing 0.8 M potassium fluoride (VWR, 26820.236) and 0.1% bovine serum albumin (BSA, PAA, K05-013) in Dulbeccos PBS (Invitrogen, 14190185). Assay plates were incubated for 4 hours at room temperature followed by 18 hours at 4 degrees Celsius and time resolved fluorescence was read at 620 nm and 665 nm emission wavelengths using an EnVision plate reader (Perkin Elmer). Data were analysed by calculating the 665/620 nm ratio followed by the % Delta F values for each sample. The 665/620 nm ratio was used to correct for sample interference using Equation 1. The % Delta F for each sample was then calculated using Equation 2. The negative control (non-specific binding) was defined by replacing biotinylated human IL-33 combined with streptavidin cryptate detection with streptavidin cryptate detection only. The % Delta F values were subsequently used to calculate % specific binding as described in Equation 3. IC₅₀ values were determined using GraphPad Prism software by curve fitting using a four-parameter logistic equation (Equation 4).

B1
IC50 (Human IL-33 Flag®His [1]): 210 nM | binding result [2]: binds | IC50, human ST2 transfected HeLa NFkB luciferase reporter assay (Human IL-33 Flag®His [3]): 332 nM

B2
IC50 (read off the curve) (Human IL-33 Flag®His [4]): ~30 nM

B3
IC50 (read off the curve) [5]: ~0.1 nM

B4
IC50, Huvec IL-8 release stimulated by human lung lysate (Endogenous human IL-33): 0.032 nM | IC50 (His10/Avi Human IL33-01 [6]): 1.5 nM | IC50, Huvec IL-8 assay vs. full length IL-33 cell lysate [7]: 0.32 nM | IC50 (read off the curve) (His10/Avi Human IL33-01 [8]): ~0.5 nM | IC50 (His10/Avi Human IL33-01 [9]): 0.3 nM | IC50 (His10/Avi Cyno IL-33): 4.1 nM

B5
IC50 (read off the curve) (33_640087-7B IgG1): ~10 nM | IC50 (read off the curve) (33_640237-2B IgG1): ~200 nM

B6
IC50 (Human IL-33 Flag®His [1]): 226 nM | binding result [2]: binds | IC50, human ST2 transfected HeLa NFkB luciferase reporter assay (Human IL-33 Flag®His [3]): 245 nM
